We go through one molecule from publication PMC6433275 (Nature structural & molecular biology, 2019).

This assay concerns the target T1, E. coli MukB (E. coli, UniProt P22523 1-1486).
T1 sequence: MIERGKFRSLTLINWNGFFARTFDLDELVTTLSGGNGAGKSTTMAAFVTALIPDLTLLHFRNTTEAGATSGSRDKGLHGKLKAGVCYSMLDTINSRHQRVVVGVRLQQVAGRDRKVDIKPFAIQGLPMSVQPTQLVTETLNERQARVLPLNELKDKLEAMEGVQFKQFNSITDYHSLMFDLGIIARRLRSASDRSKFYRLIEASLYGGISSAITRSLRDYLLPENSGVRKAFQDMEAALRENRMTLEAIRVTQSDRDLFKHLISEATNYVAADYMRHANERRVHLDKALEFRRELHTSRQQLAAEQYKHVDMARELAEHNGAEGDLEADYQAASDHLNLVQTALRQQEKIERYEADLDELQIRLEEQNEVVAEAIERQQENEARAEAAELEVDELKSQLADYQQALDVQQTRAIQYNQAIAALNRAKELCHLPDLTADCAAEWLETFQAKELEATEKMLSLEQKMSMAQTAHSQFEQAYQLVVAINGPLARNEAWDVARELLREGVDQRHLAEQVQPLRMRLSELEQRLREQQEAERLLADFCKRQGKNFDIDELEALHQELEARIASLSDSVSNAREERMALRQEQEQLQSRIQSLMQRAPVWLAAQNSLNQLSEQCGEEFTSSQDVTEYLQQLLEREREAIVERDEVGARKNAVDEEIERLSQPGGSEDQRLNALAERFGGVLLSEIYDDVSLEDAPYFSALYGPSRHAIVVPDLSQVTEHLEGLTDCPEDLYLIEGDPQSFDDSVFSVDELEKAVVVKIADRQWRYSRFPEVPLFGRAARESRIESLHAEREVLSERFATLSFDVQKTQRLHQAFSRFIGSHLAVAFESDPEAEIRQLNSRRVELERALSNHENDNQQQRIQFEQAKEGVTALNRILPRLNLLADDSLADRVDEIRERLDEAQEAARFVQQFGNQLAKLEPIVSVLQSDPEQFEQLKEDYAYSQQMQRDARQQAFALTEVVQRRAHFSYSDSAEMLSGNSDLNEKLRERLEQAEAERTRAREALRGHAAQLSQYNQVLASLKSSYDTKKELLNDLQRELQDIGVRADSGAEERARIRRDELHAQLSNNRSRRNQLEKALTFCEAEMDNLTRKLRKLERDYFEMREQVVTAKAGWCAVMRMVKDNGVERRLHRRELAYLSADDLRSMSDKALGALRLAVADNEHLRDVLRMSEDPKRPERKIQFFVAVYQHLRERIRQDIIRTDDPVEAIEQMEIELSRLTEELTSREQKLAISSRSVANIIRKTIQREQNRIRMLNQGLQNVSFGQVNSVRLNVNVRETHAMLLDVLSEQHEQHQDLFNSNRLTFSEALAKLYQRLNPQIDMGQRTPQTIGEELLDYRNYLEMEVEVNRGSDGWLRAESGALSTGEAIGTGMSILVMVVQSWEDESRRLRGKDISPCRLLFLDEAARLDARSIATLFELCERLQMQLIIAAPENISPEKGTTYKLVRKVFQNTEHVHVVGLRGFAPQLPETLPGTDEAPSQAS
Nature of the assay: SEC.

B1: E. coli MukEF complex (complex)
chain 1: MSSTNIEQVMPVKLAQALANPLFPALDSALRSGRHIGLDELDNHAFLMDFQEYLEEFYARYNVELIRAPEGFFYLRPRSTTLIPRSVLSELDMMVGKILCYLYLSPERLANEGIFTQQELYDELLTLADEAKLLKLVNNRSTGSDVDRQKLQEKVRSSLNRLRRLGMVWFMGHDSSKFRITESVFRFGADVRAGDDPREAQRRLIRDGEAMPIENHLQLNDETEENQPDSGEEE
chain 2: MSEFSQTVPELVAWARKNDFSISLPVDRLSFLLAVATLNGERLDGEMSEGELVDAFRHVSDAFEQTSETIGVRANNAINDMVRQRLLNRFTSEQAEGNAIYRLTPLGIGITDYYIRQREFSTLRLSMQLSIVAGELKRAADAAEEGGDEFHWHRNVYAPLKYSVAEIFDSIDLTQRLMDEQQQQVKDDIAQLLNKDWRAAISSCELLLSETSGTLRELQDTLEAAGDKLQANLLRIQDATMTHDDLHFVDRLVFDLQSKLDRIISWGQQSIDLWIGYDRHVHKFIRTAIDMDKNRVFAQRLRQSVQTYFDEPWALTYANADRLLDMRDEEMALRDEEVTGELPEDLEYEEFNEIREQLAAIIEEQLAVYKTRQVPLDLGLVVREYLSQYPRARHFDVARIVIDQAVRLGVAQADFTGLPAKWQPINDYGAKVQAHVIDKY
With B1, the binding result is “binds”.
